Assay results reported in patent US20250388669A1 (published 2025).

How the values were obtained:
CD137 = target: T1, CD137 (human, UniProt Q07011 24-186); assay: CD137 binding, FCM or ELISA
T1 construct: In the reporter assay it is whole, on GS-H2-huCD137 cells; also called 4-1BB; huCD137

CD3 = CD3 (human); assay: CD3 binding, as described in Example 2 (ELISA or FCM)
B7H3 [1] = target: T2, B7H3 (human, UniProt Q5ZPR3 29-466, limits assumed); assay: ELISA or FCM (Example 2)
T2 sequence (looked up): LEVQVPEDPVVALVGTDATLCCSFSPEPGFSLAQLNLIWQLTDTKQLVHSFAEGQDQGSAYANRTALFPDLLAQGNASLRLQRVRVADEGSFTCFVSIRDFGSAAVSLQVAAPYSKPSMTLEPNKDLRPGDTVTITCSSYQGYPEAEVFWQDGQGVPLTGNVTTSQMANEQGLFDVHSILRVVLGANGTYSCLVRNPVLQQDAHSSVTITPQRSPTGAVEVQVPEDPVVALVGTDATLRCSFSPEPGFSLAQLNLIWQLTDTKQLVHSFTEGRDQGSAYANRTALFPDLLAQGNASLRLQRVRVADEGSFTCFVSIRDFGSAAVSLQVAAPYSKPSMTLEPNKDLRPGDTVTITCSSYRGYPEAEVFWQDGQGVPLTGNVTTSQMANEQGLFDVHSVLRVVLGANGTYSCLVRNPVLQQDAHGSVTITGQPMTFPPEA

B7H3 [2] = target: T3, B7H3 (UniProt Q5ZPR3 29-466, limits assumed); assay: FCM or ELISA, graded
T3 sequence (looked up): T2 sequence (looked up)

CD40 = CD40 (UniProt P25942 21-193, limits assumed); assay: FCM or ELISA, graded
CD40, sequence (P25942 21-193 limits assumed): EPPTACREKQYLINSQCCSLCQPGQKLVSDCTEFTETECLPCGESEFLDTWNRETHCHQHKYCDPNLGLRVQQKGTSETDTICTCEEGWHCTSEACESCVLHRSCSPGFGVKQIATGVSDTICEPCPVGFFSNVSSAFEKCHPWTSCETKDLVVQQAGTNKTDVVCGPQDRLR

CD3 (human), sequence (chain, as listed by the source): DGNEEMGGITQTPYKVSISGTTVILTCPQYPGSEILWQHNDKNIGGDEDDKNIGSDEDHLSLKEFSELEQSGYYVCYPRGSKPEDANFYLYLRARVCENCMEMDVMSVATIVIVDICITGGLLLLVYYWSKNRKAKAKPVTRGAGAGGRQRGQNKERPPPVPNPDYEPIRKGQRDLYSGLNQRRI

B1: Ly1963 (other)
chain 1: QVQLVQSGAEVKKPGASVKVSCKASGYTFTSYVMHWVRQKPGQGLEWIGYINPYNEGTESTDKFKGRATMTSDKSTSTVYMELSSLRSEDTAVYYCASIYYGYEGTYFGVWGQGTLVTVSSASTKGPSVFPLAPSSKSTSGGTAALGCLVKDYFPEPVTVSWNSGALTSGVHTFPAVLQSSGLYSLSSVVTVPSSSLGTQTYICNVNHKPSNTKVDKKVEPKSCGGGGSGGGGSGGGGSGGGGSEVQLVESGGGLVQPGGSLRLSCAASGFTFSTYAMNWVRQAPGKGLEWVGRIRSKYNNYATYYADSVKGRFTISRDDSKNSLYLQMNSLKTEDTAVYYCVRHGNFGNSYVSWFAYWGQGTLVTVSSGGGGSDKTHTCPPCPAPEAAGPSVFLFPPKPKDTLMISRTPEVTCVVVDVSHEDPEVKFNWYVDGVEVHNAKTKPREEQYNSTYRVVSVLTVLHQDWLNGKEYKCKVSNKALPAPIEKTISKAKGQPREPQVYTLPPSREEMTKNQVSLWCLVKGFYPSDIAVEWESNGQPENNYKTTPPVLDSDGSFFLYSKLTVDKSRWQQGNVFSCSVMHEALHNHYTQKSLSLSPGGGGGSGGGGSGGGGSGGGGSQVQLVQSGAEVKKPGASVKVSCKASGYTFAGFEMHWVRQAPGQGLEWMGAIDPKTGGTDYNQKFKDRVTMTRDTSISTAYMELSRLRSDDTAVYYCARDLGYFDVWGQGTLVTVSS
chain 2: QVQLVQSGAEVKKPGASVKVSCKASGYTFTSYVMHWVRQKPGQGLEWIGYINPYNEGTESTDKFKGRATMTSDKSTSTVYMELSSLRSEDTAVYYCASIYYGYEGTYFGVWGQGTLVTVSSASTKGPSVFPLAPSSKSTSGGTAALGCLVKDYFPEPVTVSWNSGALTSGVHTFPAVLQSSGLYSLSSVVTVPSSSLGTQTYICNVNHKPSNTKVDKKVEPKSCGGGGSGGGGSGGGGSGGGGSQAVVTQEPSLTVSPGGTVTLTCRSSTGAVTTSNYANWVQQKPGQAPRGLIGGTNKRAPWTPARFSGSLLGGKAALTITGAQAEDEADYYCALWYSNLWVFGGGTKLTVLGGGGSDKTHTCPPCPAPEAAGPSVFLFPPKPKDTLMISRTPEVTCVVVDVSHEDPEVKFNWYVDGVEVHNAKTKPREEQYNSTYRVVSVLTVLHQDWLNGKEYKCKVSNKALPAPIEKTISKAKGQPREPQVYTLPPSREEMTKNQVSLSCAVKGFYPSDIAVEWESNGQPENNYKTTPPVLDSDGSFFLVSKLTVDKSRWQQGNVFSCSVMHEALHNHYTQKSLSLSPGGGGGSGGGGSGGGGSGGGGSDIQMTQSPSSLSASVGDRVTITCRASQDIRSNLNWYQQKPGGAVKLLIYYTSRLHSGVPSRFSGSGSGTDYTLTISSLQPEDFATYFCQQSEKLPRTFGGGTKVEIR
light: EIVLTQSPATLSLSPGERATLSCRASSSVSYMHWYQQKPGQAPRPWIYATSNLASGIPARFSGSRSGTDYTLTISSLEPEDFAVYYCQQWSSNTLTFGGGTKVEIKRTVAAPSVFIFPPSDEQLKSGTASVVCLLNNFYPREAKVQWKVDNALQSGNSQESVTEQDSKDSTYSLSSTLTLSKADYEKHKVYACEVTHQGLSSPVTKSFNRGEC
notes: Tri-specific antibody: B7H3 Fabs, central CD3 Fv, terminal CD137 Fv; Flexible linker is (G4S)4
- binding result (CD137): binds
- EC50 (CD3): 0.74 µg/mL
- binding result (B7H3 [1]): binds

B2: Ly2279 (bispecific antibody)
heavy 1: not shown
heavy 2: QVQLVQSGAEVKKPGASVKVSCKASGYTFTSYVMHWVRQKPGQGLEWIGYINPYNEGTESTDKFKGRATMTSDKSTSTVYMELSSLRSEDTAVYYCASIYYGYEGTYFGVWGQGTLVTVSSASTKGPSVFPLAPSSKSTSGGTAALGCLVKDYFPEPVTVSWNSGALTSGVHTFPAVLQSSGLYSLSSVVTVPSSSLGTQTYICNVNHKPSNTKVDKKVEPKSCGGGGSGGGGSGGGGSGGGGSDIQMTQSPSSVSASVGDRVTITCRASQGIYSWLAWYQQKPGKAPNLLIYTASTLQSGVPSRFSGSGSGTDFTLTISSLQPEDFATYYCQQANIFPLTFGGGTKVEIKGGGGSDKTHTCPPCPAPEAAGPSVFLFPPKPKDTLMISRTPEVTCVVVDVSHEDPEVKFNWYVDGVEVHNAKTKPREEQYNSTYRVVSVLTVLHQDWLNGKEYKCKVSNKALPAPIEKTISKAKGQPREPQVYTLPPSREEMTKNQVSLSCAVKGFYPSDIAVEWESNGQPENNYKTTPPVLDSDGSFFLVSKLTVDKSRWQQGNVFSCSVMHEALHNRFTQKSLSLSPG
light: B1 light
notes: B7H3 Fabs x central CD40 Fv (TM383)
- binding result (B7H3 [2]): binds

B3: Ly2424 (bispecific antibody, human IgG1, kappa)
heavy 1: not shown
heavy 2: QVQLVQSGAEVKKPGASVKVSCKASGYTFTSYVMHWVRQKPGQGLEWIGYINPYNEGTESTDKFKGRATMTSDKSTSTVYMELSSLRSEDTAVYYCASIYYGYEGTYFGVWGQGTLVTVSSASTKGPSVFPLAPSSKSTSGGTAALGCLVKDYFPEPVTVSWNSGALTSGVHTFPAVLQSSGLYSLSSVVTVPSSSLGTQTYICNVNHKPSNTKVDKKVEPKSCDKTHTCPPCPAPEAAGPSVFLFPPKPKDTLMISRTPEVTCVVVDVSHEDPEVKFNWYVDGVEVHNAKTKPREEQYNSTYRVVSVLTVLHQDWLNGKEYKCKVSNKALPAPIEKTISKAKGQPREPQVYTLPPSREEMTKNQVSLSCAVKGFYPSDIAVEWESNGQPENNYKTTPPVLDSDGSFFLVSKLTVDKSRWQQGNVFSCSVMHEALHNRFTQKSLSLSPGGGGGSGGGGSGGGGSGGGGSDIQMTQSPSSVSASVGDRVTITCRASQGIYSWLAWYQQKPGKAPNLLIYTASTLQSGVPSRFSGSGSGTDFTLTISSLQPEDFATYYCQQANIFPLTFGGGTKVEIK
light: B1 light
notes: B7H3 Fabs x terminal CD40 Fv (TM383)
- binding result (B7H3 [2]): binds
- binding result (CD40): binds

B4: Ly2428 (bispecific antibody)
heavy 1: QVQLVQSGAEVKKPGASVKVSCKASGYTFTSYVMHWVRQKPGQGLEWIGYINPYNEGTESTDKFKGRATMTSDKSTSTVYMELSSLRSEDTAVYYCASIYYGYEGTYFGVWGQGTLVTVSSASTKGPSVFPLAPSSKSTSGGTAALGCLVKDYFPEPVTVSWNSGALTSGVHTFPAVLQSSGLYSLSSVVTVPSSSLGTQTYICNVNHKPSNTKVDKKVEPKSCGGGGSGGGGSGGGGSGGGGSEVQLVESGGGLVQPGGSLRLSCAASGFTFTNYGLHWVRQAPGKGLEWVSSISPSGGVTYYRDSVKGRFTISRDNSKNTLYLQMNSLRAEDTAVYYCAKPFLGWGGANWIAHWGQGTLVTVSSGGGGSDKTHTCPPCPAPEAAGPSVFLFPPKPKDTLMISRTPEVTCVVVDVSHEDPEVKFNWYVDGVEVHNAKTKPREEQYNSTYRVVSVLTVLHQDWLNGKEYKCKVSNKALPAPIEKTISKAKGQPREPQVYTLPPSREEMTKNQVSLWCLVKGFYPSDIAVEWESNGQPENNYKTTPPVLDSDGSFFLYSKLTVDKSRWQQGNVFSCSVMHEALHNHYTQKSLSLSPG
heavy 2: QVQLVQSGAEVKKPGASVKVSCKASGYTFTSYVMHWVRQKPGQGLEWIGYINPYNEGTESTDKFKGRATMTSDKSTSTVYMELSSLRSEDTAVYYCASIYYGYEGTYFGVWGQGTLVTVSSASTKGPSVFPLAPSSKSTSGGTAALGCLVKDYFPEPVTVSWNSGALTSGVHTFPAVLQSSGLYSLSSVVTVPSSSLGTQTYICNVNHKPSNTKVDKKVEPKSCGGGGSGGGGSGGGGSGGGGSDIQMTQSPSSLSASVGDRVTITCLASEDISNDLAWYQQKPGKAPKLLIYFVDRLLDGVPSRFSGSGSGTDFTLTISSLQPEDFATYYCQQSYKYPPTFGQGTKLEIKGGGGSDKTHTCPPCPAPEAAGPSVFLFPPKPKDTLMISRTPEVTCVVVDVSHEDPEVKFNWYVDGVEVHNAKTKPREEQYNSTYRVVSVLTVLHQDWLNGKEYKCKVSNKALPAPIEKTISKAKGQPREPQVYTLPPSREEMTKNQVSLSCAVKGFYPSDIAVEWESNGQPENNYKTTPPVLDSDGSFFLVSKLTVDKSRWQQGNVFSCSVMHEALHNRFTQKSLSLSPG
light: B1 light
notes: B7H3 Fabs x central CD40 Fv (TM559)
- binding result (B7H3 [2]): binds
- binding result (CD40): binds

B5: TM559 (antibody, V domains shown)
VH: EVQLVESGGGLVQPGGSLRLSCAASGFTFTNYGLHWVRQAPGKGLEWVSSISPSGGVTYYRDSVKGRFTISRDNSKNTLYLQMNSLRAEDTAVYYCAKPFLGWGGANWIAHWGQGTLVTVSS
VL: DIQMTQSPSSLSASVGDRVTITCLASEDISNDLAWYQQKPGKAPKLLIYFVDRLLDGVPSRFSGSGSGTDFTLTISSLQPEDFATYYCQQSYKYPPTFGQGTKLEIK
notes: Parent mAb; also called Anti-CD40 TM559
- binding result (CD40): binds
